Results reported in paper PMC9287160.

B1: nanobody hCD11bNb1 (His-tagged) N101A (protein)
chain: QVQLVETGGGLVQAGGSLRLSCAASGNINSFNAMGWFRQAPGKQRELVAAITFGGRTNYADSVKGRFTISRDNTKGSVYLQMNSLKPEDTAVYYCAASEANLLTGVWHYWGRGTQVTVSS
B2: nanobody hCD11bNb1 (His-tagged) N30A (protein)
chain: QVQLVETGGGLVQAGGSLRLSCAASGNIASFNAMGWFRQAPGKQRELVAAITFGGRTNYADSVKGRFTISRDNTKGSVYLQMNSLKPEDTAVYYCAASENNLLTGVWHYWGRGTQVTVSS
B3: nanobody hCD11bNb1 (His-tagged) F32A (protein)
chain: QVQLVETGGGLVQAGGSLRLSCAASGNINSANAMGWFRQAPGKQRELVAAITFGGRTNYADSVKGRFTISRDNTKGSVYLQMNSLKPEDTAVYYCAASENNLLTGVWHYWGRGTQVTVSS
B4: nanobody hCD11bNb1 (His-tagged) I29A (protein)
chain: QVQLVETGGGLVQAGGSLRLSCAASGNANSFNAMGWFRQAPGKQRELVAAITFGGRTNYADSVKGRFTISRDNTKGSVYLQMNSLKPEDTAVYYCAASENNLLTGVWHYWGRGTQVTVSS
B5: nanobody hCD11bNb1 (His-tagged) F54A (protein)
chain: QVQLVETGGGLVQAGGSLRLSCAASGNINSFNAMGWFRQAPGKQRELVAAITAGGRTNYADSVKGRFTISRDNTKGSVYLQMNSLKPEDTAVYYCAASENNLLTGVWHYWGRGTQVTVSS

What follows are binders tested against human integrin αMβ2 headpiece fragment, P11215;P05107 (assay: BLI competition assay). Settings: chain shown with the change; 20 nM αMβ2 HP preincubated with 10-fold molar excess of nanobody variant; immobilized biotinylated avi-tagged WT hCD11bNb1; signal is HP binding to the sensor …; parent: est. 0.31; read off a plot.
A response of 1.2 nm was found for B1 in this work.
A response of 0.98 nm was found for B2 in this work.
A response of 1.1 nm was found for B3 in this work.
A response of 0.45 nm was found for B4 in this work.
A response of 1.2 nm was found for B5 in this work.
